The record followed here is US20050244868A1.

In test [1] the target is CG55069 (Ten-M3), endogenous on human tumour, lymphoma and leukemia cell lines (human) (UniProt Q9P273). The test can be described thus: flow cytometry on SU-DHL-4 cells, negative control antibody.
For test [2] the target is unchanged. The test is described as follows: flow cytometry on SUP-M2 cells, negative control antibody.
The target is the same in test [3]. The test is described as follows: flow cytometry on Karpas 299 cells, negative control antibody.
For test [4] the target is unchanged. The test is described as follows: flow cytometry on SR cells, negative control antibody.
Test [5] has the same target. The test can be described thus: flow cytometry on DEL cells, negative control antibody.
Test [6] has the same target. The test can be described thus: flow cytometry on CCRF-CEM cells, negative control antibody.
Test [7] shares this target. The test is described as follows: flow cytometry on MOLT-4 cells, negative control antibody.
Test [8] shares this target. The test can be described thus: flow cytometry on MV4-11 cells, negative control antibody.

Sequence of UniProt Q9P273 (Q9P273 other isoform, or with tags, fused parts or gaps): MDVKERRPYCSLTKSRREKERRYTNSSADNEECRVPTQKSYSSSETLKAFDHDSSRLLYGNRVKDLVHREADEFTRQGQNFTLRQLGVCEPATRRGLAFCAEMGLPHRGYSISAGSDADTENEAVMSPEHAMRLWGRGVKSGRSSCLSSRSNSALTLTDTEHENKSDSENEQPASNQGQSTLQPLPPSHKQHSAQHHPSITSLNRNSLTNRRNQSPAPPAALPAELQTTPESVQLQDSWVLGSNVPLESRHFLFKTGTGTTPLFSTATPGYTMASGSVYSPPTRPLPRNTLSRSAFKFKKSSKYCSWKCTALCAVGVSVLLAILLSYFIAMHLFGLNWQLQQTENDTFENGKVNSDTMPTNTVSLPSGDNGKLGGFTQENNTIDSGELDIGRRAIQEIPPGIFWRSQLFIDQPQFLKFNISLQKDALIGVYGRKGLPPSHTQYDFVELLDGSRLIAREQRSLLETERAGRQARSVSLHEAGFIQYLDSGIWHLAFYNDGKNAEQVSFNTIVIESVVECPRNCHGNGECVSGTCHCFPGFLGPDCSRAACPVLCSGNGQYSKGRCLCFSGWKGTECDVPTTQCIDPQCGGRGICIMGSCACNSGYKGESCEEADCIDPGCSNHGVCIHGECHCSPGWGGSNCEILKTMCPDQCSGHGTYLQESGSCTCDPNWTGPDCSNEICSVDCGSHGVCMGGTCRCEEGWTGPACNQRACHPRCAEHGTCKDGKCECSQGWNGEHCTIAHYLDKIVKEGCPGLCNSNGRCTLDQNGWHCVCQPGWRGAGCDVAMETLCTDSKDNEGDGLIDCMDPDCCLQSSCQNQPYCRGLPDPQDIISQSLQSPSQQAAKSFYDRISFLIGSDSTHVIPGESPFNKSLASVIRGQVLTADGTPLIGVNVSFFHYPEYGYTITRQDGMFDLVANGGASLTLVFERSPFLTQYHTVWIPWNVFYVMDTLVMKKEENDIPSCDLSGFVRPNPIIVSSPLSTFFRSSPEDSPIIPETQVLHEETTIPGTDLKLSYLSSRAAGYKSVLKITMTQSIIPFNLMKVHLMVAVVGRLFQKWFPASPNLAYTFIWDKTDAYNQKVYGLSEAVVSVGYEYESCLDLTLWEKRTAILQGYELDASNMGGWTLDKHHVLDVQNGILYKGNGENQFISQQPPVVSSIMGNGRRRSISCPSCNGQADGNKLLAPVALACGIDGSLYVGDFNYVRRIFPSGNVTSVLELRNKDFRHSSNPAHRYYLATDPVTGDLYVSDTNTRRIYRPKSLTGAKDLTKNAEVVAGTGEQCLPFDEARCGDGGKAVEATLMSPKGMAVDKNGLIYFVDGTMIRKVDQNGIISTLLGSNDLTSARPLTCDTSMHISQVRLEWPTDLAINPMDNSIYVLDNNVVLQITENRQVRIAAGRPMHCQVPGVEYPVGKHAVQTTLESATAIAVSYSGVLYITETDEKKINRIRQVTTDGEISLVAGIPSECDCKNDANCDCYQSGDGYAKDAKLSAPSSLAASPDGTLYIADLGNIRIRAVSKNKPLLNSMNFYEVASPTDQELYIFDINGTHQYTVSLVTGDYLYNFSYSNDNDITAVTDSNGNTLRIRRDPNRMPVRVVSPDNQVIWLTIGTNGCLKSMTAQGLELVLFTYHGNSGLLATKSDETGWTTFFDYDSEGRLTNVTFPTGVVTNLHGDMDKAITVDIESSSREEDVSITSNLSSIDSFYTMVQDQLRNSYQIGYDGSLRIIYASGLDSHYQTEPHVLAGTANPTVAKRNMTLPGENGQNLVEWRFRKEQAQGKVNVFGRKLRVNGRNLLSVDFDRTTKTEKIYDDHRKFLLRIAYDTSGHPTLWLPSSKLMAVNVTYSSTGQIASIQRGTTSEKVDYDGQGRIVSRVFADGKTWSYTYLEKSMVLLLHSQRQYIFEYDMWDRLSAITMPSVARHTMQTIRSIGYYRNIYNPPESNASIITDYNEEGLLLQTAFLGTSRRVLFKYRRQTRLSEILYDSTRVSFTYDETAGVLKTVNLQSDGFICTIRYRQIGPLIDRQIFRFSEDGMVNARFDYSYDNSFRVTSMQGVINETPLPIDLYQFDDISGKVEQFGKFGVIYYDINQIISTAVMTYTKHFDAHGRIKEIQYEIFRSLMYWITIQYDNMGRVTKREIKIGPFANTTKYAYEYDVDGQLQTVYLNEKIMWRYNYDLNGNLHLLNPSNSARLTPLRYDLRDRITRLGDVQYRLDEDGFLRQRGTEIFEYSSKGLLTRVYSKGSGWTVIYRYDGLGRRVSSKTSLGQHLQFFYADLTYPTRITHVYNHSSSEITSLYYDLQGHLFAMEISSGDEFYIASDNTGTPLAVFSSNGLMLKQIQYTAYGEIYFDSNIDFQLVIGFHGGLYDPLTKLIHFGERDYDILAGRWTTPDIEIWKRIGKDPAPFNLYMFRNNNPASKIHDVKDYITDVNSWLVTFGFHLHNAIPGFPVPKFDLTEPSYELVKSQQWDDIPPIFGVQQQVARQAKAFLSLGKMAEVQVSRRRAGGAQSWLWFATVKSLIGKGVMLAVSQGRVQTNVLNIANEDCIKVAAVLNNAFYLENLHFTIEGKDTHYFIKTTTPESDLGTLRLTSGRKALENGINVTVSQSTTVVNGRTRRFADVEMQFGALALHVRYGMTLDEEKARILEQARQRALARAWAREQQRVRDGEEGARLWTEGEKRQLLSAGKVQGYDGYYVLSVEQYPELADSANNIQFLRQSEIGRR

As to Rabbit negative (control antibody), the Geo Mean Ratio was 2.38 in test [1]; 6.13 in test [2]; 5.08 in test [3]; 4.29 in test [4]; 7.41 in test [5]; 4.22 in test [6]. Besides, the Geo Mean Ratio in test [7] is 4.13; in test [8], 90.7.
